The target of this assay is T1, Aβ 1-40 peptide (UniProt P05067 672-711).
T1 construct: amyloid beta peptide Aβ 1-40, cut product of the amyloid precursor protein (APP); the methods call it a bought peptide, the results a 'recombinant peptide'; also called recombinant peptide; immobilised Aβ; source: bought: America Peptide, Sunnyvale, CA
The experiment in a line: ELISA; Aβ1-40 peptide coated on Maxisorp plates (0.1 µg/ml, bicarbonate buffer pH 9.6); antibodies serially diluted in PBS/1 % BSA, 1 h at room temperature; detected with biotinylated anti-mouse IgG and streptavidin poly-HRP; relative affinity. The note with it: both partners purified. A general note: An ELISA detects its analyte on a solid surface through an enzyme-linked reagent.

B1: mC2 (murine parent antibody of Crenezumab), recombinant with mouse IgG2a constant region (antibody, V domains shown)
VH: EVQLVESGGGLVQPGGSLKLSCAASGFTFSSYGMSWVRQTPDKRLELVASINSNGGSTYYPDSVKGRFTISRDNAKNTLYLQMSSLKSEDTAMYYCASGDYWGQGSTLTVSS
VL: DVVMTQTPLSLPVSLGDQASISCRSSQSLVYSNGDTYLHWYLQKPGQSPKLLIYKVSNRFSGVPDRFSGSGSGTDFTLKISRVEAEDLGVYFCSQSTHVPWTFGGGTKLEIKR
notes: heavy chain variable domain of mC2; mouse IgG2a heavy chain constant domain; light chain variable domain of mC2; mouse kappa light chain constant domain; mouse IgG2a, kappa; variable domain joined directly to the constant domain (synthetic genes); also called murine version of Crenezumab; Crenezumab-mC2; source: HEK293 6E cells, transient transfection (pTT5), purified from culture media …
Broadly, the EC50 is the midpoint of the concentration-response curve. A higher EC50 goes with weaker potency. B1 came in with an EC50 of 0.0174 nM.

The values are drawn from PMC4612324, “Comparing the efficacy and neuroinflammatory potential of three anti-abeta antibodies” (Acta Neuropathologica, 2015).
